Test results published in patent publication US20120066777A1 (SHIONOGI, published 2012).
Values belong to the binder of their own block, whether it stands above or below them.

Key:
[1] = target: T1, human recombinant CCDC3 protein (human, UniProt Q9BQI4 22-270); experiment: displacement ELISA: captured antibody, unlabelled human recombinant CCDC3 (0.01 to 100 nM) against biotin-human recombinant CCDC3
T1 construct: Secreted from Freestyle293 cells, purified from culture supernatant, 3xFlag tag removed with thrombin (31 kDa); the C-terminus at 270 follows from the C-terminus peptide 259-270; Also used biotin-labelled (PEO-maleimide biotin) as tracer; also called human CCDC3 recombinant protein; human CCDC3 protein
T1 sequence: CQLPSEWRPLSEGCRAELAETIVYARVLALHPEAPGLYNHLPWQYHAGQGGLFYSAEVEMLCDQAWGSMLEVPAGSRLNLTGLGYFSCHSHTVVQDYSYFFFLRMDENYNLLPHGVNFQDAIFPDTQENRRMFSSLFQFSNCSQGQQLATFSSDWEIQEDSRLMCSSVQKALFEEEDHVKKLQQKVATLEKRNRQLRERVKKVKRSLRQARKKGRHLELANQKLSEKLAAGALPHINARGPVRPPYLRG
Description: A buffer A containing 10 μl of CCDC3 antibody was added to the anti-mouse IgG antibody-anchored plate, and 10 μl of 0.01 to 100 nM human recombinant CCDC3 was added. The mixture was allowed to react at 4° C. for 16 hours after adding buffer A (10 μl) that contained 1 ng of biotin-human recombinant CCDC3 protein and 4 ng of Streptavidin-HRP (PIERCE). Each well was washed three times with washing liquid (90 μl), and 25 μl of TMB+Substrate-Chromogen (DAKO) was added to develop color at room temperature for 30 min. The reaction was stopped by adding 25 μl of 0.5 M sulfuric acid, and absorbance at 450 nm was measured.

[2] = target: T2, human CCDC3 protein C-terminus partial peptide (259-270) (human, PEO-maleimide activated biotin on the added N-terminal Cys); experiment: raised against the peptide-KLH; hybridoma screened by ELISA on the biotin-labelled peptide
T2 construct: the immunogen was the 12 mer conjugated to KLH; also called biotin-human CCDC3 protein C-terminus region peptide
Description: Specific antibody producing cells were screened 10 days after the cells were fused. Screening was performed by ELISA, as follows. A Tris buffer (50 mM Tris-HCl, pH 7.5, 35 μl) containing anti-mouse IgG antibodies (0.35 μg; Shibayagi Co., Ltd.) was added to each well of a 384-well microtiter plate (Nunc), and the antibodies were immobilized at 4° C. for 16 hours. The wells were washed once with 90 μl of washing liquid (physiological saline containing 0.01% Tween 20), and left unattended at room temperature for 2 hours for blocking after adding […] of Block Ace (Dainippon Pharma) (anti-mouse IgG antibody-anchored plate). After washing each well once with washing liquid (90 μl), a hybridoma culture supernatant (15 μl) and buffer A (10 μl; 50 mM Tris buffer containing 0.5% bovine serum albumin, 0.01% Tween 80, 0.05% Proclin 150, and 0.5 M NaCl; pH 7.4) were added. When the immunogen was the peptide-KLH conjugate, buffer A (10 μl) containing 0.02 ng of the biotin-human CCDC3 protein C-terminus region peptide and 2 ng of Streptavidin-HRP (PIERCE) was added. When the immunogen was the human recombinant CCDC3 protein or its KLH-conjugate, buffer A (10 μl) containing 1 ng of the biotin-human recombinant CCDC3 protein and 4 ng of Streptavidin-HRP (PIERCE) was added. […] The reaction was stopped by adding 25 μl of 0.5 M sulfuric acid, and absorbance at 450 nm was measured.

- IC50 [1]: 0.1 nM
B1: 11E10 antibody (antibody, IgG2b, V domains shown)
VH: QVQLQQSGPELVKPGASVKISCKASGYSFRSYYIHWMKQSPGQGLEWIAWIYPGGGKIYYNDNEKFKDKVTLTADTSSSTAYMQLTGLTSEDSAVYFCARWGGYYVGSILDYWGQGTSVTVSS
VL: DGDIVMTQSQKFLSTSVGDRVSVTCKASQNVDNNVAWYQQRPGQSPKPLIYLTSSRYSGVPDRFTGSGSGTDFTLTITNVQSEDLAEYFCQQYKTYPLTFSVGTKLELKRA
notes: Mouse hybridoma monoclonal, isotype IgG2b; From a mouse immunized with antigen 2 (human recombinant CCDC3-KLH conjugate); also called human anti-CCDC3 antibody 11E10

- binding result [2]: binds
- IC50 [1]: 9.4 nM
B2: 3H6 antibody (antibody, IgG2b, V domains shown)
VH: QIQLVQSGPELKKPGETVKISCKASGYTFTNYGMIWVKQAPGKDLKWMAWINTYSGEPTCADDFKGRFAFSLETSASTAYLQINNLKNEDMATYFCARDDGYYGYFDYWGQGTTLTVSS
VL: DVVMTQTPLSLPVSLGDQASISCRSSQTLVHSDGNTYLHWYLQKPGQSPKLLIYKISNRFSGVPDRFSGSGSGTDFTLKISRVEAEDLGVYFCSQSTHVPPTFGGGTKLEIKR
notes: Mouse hybridoma monoclonal, isotype IgG2b; From a mouse immunized with antigen 1 (human CCDC3 C-terminus peptide 259-270 conjugated to KLH); Used biotinylated as capture antibody in the sandwich ELISA; also called human anti-CCDC3 antibody 3H6

- IC50 [1]: 3.2 nM
B3: 6G12 antibody (antibody, IgG1, V domains shown)
VH: QVQLQQPGAELVRPGASVKMSCKASGYTFSSYLMDWVKQRPGQGFECIGNINPNTGSTIYNERFKGKAKLTVDKSSSTAYMQLISLTSEDSAVYYCAADGYYAPFTYWGQGTLVTVSA
VL: DIVMTQAAPSVPVTPGESVSISCRSSKSLLHNNGNTYLYWFLQRPGQSPQLLIYRMSNLASGVPDRFSGSGSGTAFTLRISRVEAEDVGVYYCMQHLEYPFTFGAGTKLELKR
notes: Mouse hybridoma monoclonal, isotype IgG1; From a mouse immunized with antigen 3 (human recombinant CCDC3); Used biotinylated as capture antibody in the sandwich ELISA; also called human anti-CCDC3 antibody 6G12
